Assay results taken from patent publication US10836808B2, “Binding-triggered transcriptional switches and methods of use thereof” (The Regents of the University of California, priority 2015, dated 2020).

Tests used:
gamma secretase = assay: Chimeric Notch (anti-CD19 scFv/tTA) receiver cell GFP reporter with CD19 sender cells, with or without DAPT; format: cell-based, mouse; conditions: 1 mM DAPT, in the presence of CD19 sender cells
Description: DAPT is a gamma secretase inhibitor. The data are expressed as GFP^+“receiver” cells.

K562 cells = assay: Sensitivity of cancer cell lines to recombinant TRAIL; format: cell-based; conditions: 1 to 200 ng/mL, 24 hours
Method: (§1) The cells were then harvested and stained with the live/dead stain, SYTOX Blue (Thermo Scientific #S34857) and the fraction of dead cells was determined by flow cytometry on a BD LSR II.

[1] = tested on: HCT116 colon cancer cells; assay: as above; format: cell-based; conditions: 1 to 200 ng/mL, 24 hours
Method: as §1

| Molecule | GFP+ receiver cells (gamma secretase) | induction of apoptosis in cancer cell line (K562 cells) | induction of apoptosis in cancer cell line (K562 cells; listed as recombinant TRAIL) | killing of cancer cell line [1] | killing of cancer cell line ([1]; listed as recombinant TRAIL) |
| --- | --- | --- | --- | --- | --- |
| C[C@H](NC(=O)Cc1cc(F)cc(F)c1)C(=O)NC(C(=O)OC(C)(C)C)c1ccccc1 (some centres unmarked) [DAPT] | at control, untreated levels |  |  |  |  |
| soluble TRAIL: an inducer of apoptosis and a cancer therapeutic (protein, UniProt P50591 39-281, looked up, extracellular domain, an inducer of apoptosis and a cancer therapeutic) extracellular domain: TNELKQMQDKYSKSGIACFLKEDDSYWDPNDEESMNSPCWQVKWQLRQLVRKMILRTSEETISTVQEKQQNISPLVRERGPQRVAAHITGTRGRSNTLSSPNSKNEKALGRKINSWESSRSGHSFLSNLHLRNGELVIHEKGFYYIYSQTYFRFQEEIKENTKNDKQMVQYIYKYTSYPDPILLMKSARNSCWSKDAEYGLYSIYQGGIFELKENDRIFVSVTNEHLIDMDHEASFFGAFLVG |  | does not induce apoptosis even at high doses | insensitive to TRAIL treatment | effective at killing | sensitive to low level TRAIL treatment |
